US20110033476A1 (published 2011)

B1: 23K12 (antibody, V domains shown)
VH: EVQLVESGGGLVQPGGSLRISCAASGFTVSSNYMSWVRQAPGKGLEWVSVIYSGGSTYYADSVKGRFSFSRDNSKNTVFLQMNSLRAEDTAVYYCARCLSRMRGYGLDVWGQGTTVTVS
VL: DIQMTQSPSSLSASVGDRVTITCRTSQSISSYLNWYQQKPGKAPKLLIYAASSLQSGVPSRFSGSGSGTDFTLTISGLQPEDFATYYCQQSYSMPAFGQGTKLEIK

Assays:
[1] = target: M2 protein of influenza A/Puerto Rico/8/34 (H1N1) (Influenza A virus A/Puerto Rico/8/34 (H1N1)) (UniProt P06821); assay: ELISA on purified A/Puerto Rico/8/34 virus coated on wells (FIG. 14a)
[2] = target: M2 protein of influenza A/Puerto Rico/8/34 (H1N1) (Influenza A virus A/Puerto Rico/8/34 (H1N1)) (UniProt P06821); assay: surface plasmon resonance, Fab binding to virus
[3] = target: T1, M2 protein of influenza A/Puerto Rico/8/34 (H1N1) (Influenza A virus A/Puerto Rico/8/34 …, UniProt P06821 1-97); assay: ELISA on influenza virus, crude supernatant (FIG. 9)
T1 construct: whole, on cells
T1 sequence (P06821 whole entry): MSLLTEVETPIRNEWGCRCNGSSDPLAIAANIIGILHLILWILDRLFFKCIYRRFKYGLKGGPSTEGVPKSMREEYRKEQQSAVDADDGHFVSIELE

Sequence of M2 protein of influenza A/Puerto Rico/8/34 (H1N1) (Influenza A virus A/Puerto Rico/8/34 (H1N1)) (P06821 whole entry): as above

Row | Molecule | EC50 [1] | Kd [2] | koff [2] | kon [2] | binding result [3]
1 | TCN-031 (antibody) | 0.1 µg/mL |  |  |  | 
2 | TCN-031 Fab |  | 14 nM | 0.014 s⁻¹ | 1e+06 M⁻¹ s⁻¹ | 
3 | TCN-032 (antibody) | 0.1 µg/mL |  |  |  | 
4 | TCN-032 Fab |  | 3.2 nM | 0.0023 s⁻¹ | 740000 M⁻¹ s⁻¹ | 
5 | B1 |  |  |  |  | binds
